Square brackets hold non-standard residues; d marks the D form. Peptide text beside a SMILES is read from it. * marks the point of attachment. X3 = O=C(CCCCCNCc1nc2c(sc3cc(Br)cnc32)c(=O)[nH]1)*
Key:
Assay in all cases: Kinase profiling (radiometric filter-binding)
Format in all cases: biochemical
HIPK1 = HIPK1 (Homo sapiens, UniProt Q86Z02); conditions: HIPK1, 1 µM inhibitor; read-out: Residual activity, %
How it was run: (§1)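 A 1 µM final dose of each inhibitor was profiled on human protein kinases; ATP was kept at or beneath the KM of every enzyme, and radiometric filter binding measured turnover, expressed as % of the inhibitor-free reaction.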

PKCγ = PKCγ (Homo sapiens, UniProt P05129); conditions: 1 µM inhibitor, read-out: Residual activity, %
How it was run: as §1

HER4 = HER4 (Homo sapiens, UniProt Q15303); conditions: HER4, 1 µM inhibitor; read-out: Residual activity, %
HER4, sequence (Q15303 26-1308): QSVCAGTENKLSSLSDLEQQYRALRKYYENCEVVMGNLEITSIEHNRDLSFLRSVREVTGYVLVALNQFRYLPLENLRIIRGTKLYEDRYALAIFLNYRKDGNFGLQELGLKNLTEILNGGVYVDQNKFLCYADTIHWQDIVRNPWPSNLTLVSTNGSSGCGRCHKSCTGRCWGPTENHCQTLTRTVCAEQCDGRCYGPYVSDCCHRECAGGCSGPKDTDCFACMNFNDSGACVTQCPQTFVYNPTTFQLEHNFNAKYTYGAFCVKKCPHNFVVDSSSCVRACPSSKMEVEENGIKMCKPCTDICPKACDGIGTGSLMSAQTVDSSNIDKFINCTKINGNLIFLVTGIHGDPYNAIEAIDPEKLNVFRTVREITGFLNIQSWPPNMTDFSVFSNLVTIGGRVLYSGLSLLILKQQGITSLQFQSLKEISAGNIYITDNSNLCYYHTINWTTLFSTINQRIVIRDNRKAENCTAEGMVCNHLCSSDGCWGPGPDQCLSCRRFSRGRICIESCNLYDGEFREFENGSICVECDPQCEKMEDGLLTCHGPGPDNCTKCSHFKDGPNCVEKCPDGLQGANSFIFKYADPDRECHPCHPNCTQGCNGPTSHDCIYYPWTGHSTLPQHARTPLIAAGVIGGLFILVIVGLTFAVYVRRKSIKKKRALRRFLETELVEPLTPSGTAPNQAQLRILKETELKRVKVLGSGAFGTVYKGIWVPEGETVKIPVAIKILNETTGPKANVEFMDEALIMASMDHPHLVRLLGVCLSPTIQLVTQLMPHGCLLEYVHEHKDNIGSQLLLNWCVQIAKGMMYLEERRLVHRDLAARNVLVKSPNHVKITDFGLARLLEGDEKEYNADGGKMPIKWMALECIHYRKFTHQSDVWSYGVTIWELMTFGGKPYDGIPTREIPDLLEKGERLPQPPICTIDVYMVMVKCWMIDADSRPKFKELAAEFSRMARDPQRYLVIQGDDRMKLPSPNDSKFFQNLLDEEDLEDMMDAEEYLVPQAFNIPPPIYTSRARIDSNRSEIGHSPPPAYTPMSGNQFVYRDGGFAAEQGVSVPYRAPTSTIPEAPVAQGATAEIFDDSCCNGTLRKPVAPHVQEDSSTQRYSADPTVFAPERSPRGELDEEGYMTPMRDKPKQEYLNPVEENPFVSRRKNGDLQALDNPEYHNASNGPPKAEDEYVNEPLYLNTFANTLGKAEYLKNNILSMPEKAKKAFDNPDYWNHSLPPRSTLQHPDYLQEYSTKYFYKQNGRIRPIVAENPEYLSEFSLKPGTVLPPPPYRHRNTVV
How it was run: as §1

RSK2 = RSK2 (Homo sapiens, UniProt P51812); conditions: RSK2, 1 µM inhibitor; read-out: Residual activity, %
RSK2, sequence (P51812 whole entry): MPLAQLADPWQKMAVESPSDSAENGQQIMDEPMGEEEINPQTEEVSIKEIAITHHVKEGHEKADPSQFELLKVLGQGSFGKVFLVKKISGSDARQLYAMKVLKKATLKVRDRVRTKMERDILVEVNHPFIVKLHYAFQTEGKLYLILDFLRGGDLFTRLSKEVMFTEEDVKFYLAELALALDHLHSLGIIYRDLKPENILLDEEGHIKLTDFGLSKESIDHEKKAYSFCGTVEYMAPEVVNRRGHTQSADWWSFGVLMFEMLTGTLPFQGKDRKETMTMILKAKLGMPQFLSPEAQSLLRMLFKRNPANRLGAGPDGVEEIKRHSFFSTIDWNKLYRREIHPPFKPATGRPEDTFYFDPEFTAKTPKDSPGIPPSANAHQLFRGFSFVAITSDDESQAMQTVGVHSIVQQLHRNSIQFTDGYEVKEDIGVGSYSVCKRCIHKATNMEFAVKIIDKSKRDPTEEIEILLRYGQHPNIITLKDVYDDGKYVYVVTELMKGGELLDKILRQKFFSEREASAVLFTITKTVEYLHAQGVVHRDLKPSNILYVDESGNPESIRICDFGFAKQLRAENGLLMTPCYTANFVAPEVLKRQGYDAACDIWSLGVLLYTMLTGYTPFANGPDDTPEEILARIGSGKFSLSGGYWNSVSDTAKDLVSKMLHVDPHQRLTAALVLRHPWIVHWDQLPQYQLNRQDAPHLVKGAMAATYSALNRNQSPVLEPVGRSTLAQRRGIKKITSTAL
How it was run: as §1

MKK1 = MKK1 (Homo sapiens, UniProt Q02750); conditions: MKK1, 1 µM inhibitor; read-out: Residual activity, %
MKK1, sequence (Q02750 whole entry): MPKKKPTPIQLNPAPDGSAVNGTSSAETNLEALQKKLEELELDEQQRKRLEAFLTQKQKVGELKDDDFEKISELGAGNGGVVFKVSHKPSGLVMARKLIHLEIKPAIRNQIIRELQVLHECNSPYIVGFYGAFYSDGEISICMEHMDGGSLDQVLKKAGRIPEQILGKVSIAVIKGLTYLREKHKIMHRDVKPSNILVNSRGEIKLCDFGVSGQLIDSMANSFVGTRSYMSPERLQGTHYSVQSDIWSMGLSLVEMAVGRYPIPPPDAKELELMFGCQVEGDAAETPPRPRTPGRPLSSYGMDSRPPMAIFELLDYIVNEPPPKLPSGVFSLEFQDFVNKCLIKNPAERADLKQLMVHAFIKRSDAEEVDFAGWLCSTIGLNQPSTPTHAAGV
How it was run: as §1

MARK1 = MARK1 (Homo sapiens, UniProt Q9P0L2); conditions: MARK1, 1 µM inhibitor; read-out: Residual activity, %
MARK1, sequence (Q9P0L2 whole entry): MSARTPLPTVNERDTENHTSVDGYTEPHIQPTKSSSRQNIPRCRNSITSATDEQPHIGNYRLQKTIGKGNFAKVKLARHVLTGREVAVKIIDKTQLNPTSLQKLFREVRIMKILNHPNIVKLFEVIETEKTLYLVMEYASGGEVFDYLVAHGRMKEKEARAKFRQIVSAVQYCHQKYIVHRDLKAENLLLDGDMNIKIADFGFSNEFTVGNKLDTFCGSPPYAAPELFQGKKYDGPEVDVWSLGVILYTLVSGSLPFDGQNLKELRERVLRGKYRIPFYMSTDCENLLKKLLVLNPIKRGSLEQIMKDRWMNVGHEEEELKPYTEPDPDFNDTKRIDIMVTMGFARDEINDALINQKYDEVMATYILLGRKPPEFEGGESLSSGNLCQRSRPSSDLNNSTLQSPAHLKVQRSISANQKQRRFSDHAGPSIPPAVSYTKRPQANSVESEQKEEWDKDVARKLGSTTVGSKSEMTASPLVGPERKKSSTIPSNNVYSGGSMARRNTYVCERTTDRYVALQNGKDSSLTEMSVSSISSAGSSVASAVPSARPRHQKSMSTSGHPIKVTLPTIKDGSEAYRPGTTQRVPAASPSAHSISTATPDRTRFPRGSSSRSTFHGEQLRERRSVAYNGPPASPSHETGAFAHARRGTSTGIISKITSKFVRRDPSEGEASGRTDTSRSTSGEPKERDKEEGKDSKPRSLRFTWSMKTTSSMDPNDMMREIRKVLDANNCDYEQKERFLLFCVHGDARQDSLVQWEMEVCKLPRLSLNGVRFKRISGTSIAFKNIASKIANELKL
How it was run: as §1

CK2 = CK2 (Homo sapiens, UniProt P68400); conditions: CK2, 1 µM inhibitor; read-out: Residual activity, %
CK2, sequence (P68400 whole entry): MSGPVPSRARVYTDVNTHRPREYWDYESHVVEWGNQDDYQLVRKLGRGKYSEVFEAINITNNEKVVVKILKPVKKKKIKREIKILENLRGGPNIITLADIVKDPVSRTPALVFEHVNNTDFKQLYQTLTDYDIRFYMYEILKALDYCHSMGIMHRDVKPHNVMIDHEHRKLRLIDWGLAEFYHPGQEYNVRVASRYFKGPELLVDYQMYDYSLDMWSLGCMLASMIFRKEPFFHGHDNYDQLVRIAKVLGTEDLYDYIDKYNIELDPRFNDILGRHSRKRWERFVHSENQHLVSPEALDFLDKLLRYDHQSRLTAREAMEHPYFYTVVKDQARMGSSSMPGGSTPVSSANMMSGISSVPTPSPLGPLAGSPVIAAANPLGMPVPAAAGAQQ
How it was run: as §1

TESK1 = TESK1 (Homo sapiens, UniProt Q15569); conditions: TESK1, 1 µM inhibitor; read-out: Residual activity, %
TESK1, sequence (Q15569 whole entry): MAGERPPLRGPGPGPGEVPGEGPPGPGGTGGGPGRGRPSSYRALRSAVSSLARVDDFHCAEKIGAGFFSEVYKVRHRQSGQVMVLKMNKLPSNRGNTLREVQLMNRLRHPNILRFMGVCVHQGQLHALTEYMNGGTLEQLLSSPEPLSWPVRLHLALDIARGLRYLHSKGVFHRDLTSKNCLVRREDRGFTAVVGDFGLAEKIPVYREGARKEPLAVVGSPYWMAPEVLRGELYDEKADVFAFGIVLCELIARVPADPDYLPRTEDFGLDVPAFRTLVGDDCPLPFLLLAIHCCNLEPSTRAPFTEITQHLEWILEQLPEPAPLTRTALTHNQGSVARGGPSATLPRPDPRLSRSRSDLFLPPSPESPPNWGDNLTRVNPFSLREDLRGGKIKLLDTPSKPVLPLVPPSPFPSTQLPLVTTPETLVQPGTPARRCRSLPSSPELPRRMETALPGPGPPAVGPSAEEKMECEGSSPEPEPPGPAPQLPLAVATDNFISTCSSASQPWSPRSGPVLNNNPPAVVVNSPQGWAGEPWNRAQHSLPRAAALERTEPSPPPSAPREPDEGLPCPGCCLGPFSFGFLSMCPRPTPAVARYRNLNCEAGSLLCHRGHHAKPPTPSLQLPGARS
How it was run: as §1

IKK = target: T1, IKK (Homo sapiens, UniProt O14920); conditions: first of two IKK lines (Greek letter lost), 1 µM inhibitor, read-out: Residual activity, %
T1 sequence (O14920 1-756): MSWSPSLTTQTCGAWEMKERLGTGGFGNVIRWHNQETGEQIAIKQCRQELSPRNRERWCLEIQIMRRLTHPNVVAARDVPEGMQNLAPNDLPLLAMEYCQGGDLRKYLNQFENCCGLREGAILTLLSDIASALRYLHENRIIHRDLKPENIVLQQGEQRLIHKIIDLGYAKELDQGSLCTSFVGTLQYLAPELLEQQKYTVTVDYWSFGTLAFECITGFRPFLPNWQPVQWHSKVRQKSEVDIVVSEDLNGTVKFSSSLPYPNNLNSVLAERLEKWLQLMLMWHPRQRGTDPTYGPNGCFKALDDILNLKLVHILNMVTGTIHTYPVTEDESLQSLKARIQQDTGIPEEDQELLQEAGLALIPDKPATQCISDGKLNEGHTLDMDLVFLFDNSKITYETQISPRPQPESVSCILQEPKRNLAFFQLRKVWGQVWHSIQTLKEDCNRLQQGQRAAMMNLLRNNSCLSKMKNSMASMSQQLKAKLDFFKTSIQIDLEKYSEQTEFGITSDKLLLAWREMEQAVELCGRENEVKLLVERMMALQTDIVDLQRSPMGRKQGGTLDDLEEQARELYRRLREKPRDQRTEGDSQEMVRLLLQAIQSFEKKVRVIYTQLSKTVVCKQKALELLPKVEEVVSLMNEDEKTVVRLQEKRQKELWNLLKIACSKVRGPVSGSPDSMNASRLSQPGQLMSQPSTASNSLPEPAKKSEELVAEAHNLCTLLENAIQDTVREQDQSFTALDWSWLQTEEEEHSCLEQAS
How it was run: as §1

EPH-B3 = target: T2, EPH-B3 (Homo sapiens, UniProt P54753); conditions: EPH-B3, 1 µM inhibitor; read-out: Residual activity, %
T2 sequence (P54753 34-998): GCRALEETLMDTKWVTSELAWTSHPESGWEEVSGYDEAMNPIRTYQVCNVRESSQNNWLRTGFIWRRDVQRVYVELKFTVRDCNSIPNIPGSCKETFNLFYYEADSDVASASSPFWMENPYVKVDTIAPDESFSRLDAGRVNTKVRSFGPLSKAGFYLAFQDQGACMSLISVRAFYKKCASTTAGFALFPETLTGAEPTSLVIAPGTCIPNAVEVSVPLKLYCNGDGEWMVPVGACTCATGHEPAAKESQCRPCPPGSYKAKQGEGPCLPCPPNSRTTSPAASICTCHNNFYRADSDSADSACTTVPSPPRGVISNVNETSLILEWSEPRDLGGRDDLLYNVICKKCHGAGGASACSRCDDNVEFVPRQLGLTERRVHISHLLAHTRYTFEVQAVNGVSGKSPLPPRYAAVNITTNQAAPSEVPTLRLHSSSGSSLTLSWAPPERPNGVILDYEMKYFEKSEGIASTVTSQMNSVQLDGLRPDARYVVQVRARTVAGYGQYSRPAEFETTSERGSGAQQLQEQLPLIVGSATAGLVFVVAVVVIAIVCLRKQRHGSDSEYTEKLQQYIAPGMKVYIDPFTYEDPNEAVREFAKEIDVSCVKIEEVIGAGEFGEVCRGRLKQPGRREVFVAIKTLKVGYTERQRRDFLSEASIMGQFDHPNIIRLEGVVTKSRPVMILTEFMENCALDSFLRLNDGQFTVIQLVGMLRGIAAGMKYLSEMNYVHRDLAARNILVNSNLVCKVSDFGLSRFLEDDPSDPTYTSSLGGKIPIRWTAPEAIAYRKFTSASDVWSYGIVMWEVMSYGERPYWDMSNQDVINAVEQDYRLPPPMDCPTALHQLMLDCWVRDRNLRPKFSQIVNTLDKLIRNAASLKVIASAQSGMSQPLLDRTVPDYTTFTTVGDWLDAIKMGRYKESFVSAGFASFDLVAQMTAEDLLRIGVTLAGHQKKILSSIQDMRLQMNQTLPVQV
How it was run: as §1

Row | SMILES | remaining activity at 1 µM (HIPK1) | remaining activity at 1 µM (PKCγ) | remaining activity at 1 µM (HER4) | remaining activity at 1 µM (RSK2) | remaining activity at 1 µM (MKK1) | remaining activity at 1 µM (MARK1) | remaining activity at 1 µM (CK2) | remaining activity at 1 µM (TESK1) | remaining activity at 1 µM (IKK) | remaining activity at 1 µM (EPH-B3)
1 | N=C(N)NCCC[C@@H](NC(=O)CCCCCNC(=O)Cn1cnc2c(I)c(I)c(I)c(I)c21)C(=O)N[C@H](CCCNC(=N)N)C(=O)N[C@H](CCCNC(=N)N)C(=O)N[C@H](CCCNC(=N)N)C(=O)N[C@H](CCCNC(=N)N)C(=O)N[C@H](CCCNC(=N)N)C(=O)N[C@H](CCCCN)C(N)=O [ARC-3125, TIBI-CH2-C(=O)-Ahx-(D-Arg)6-D-Lys-NH2] | 61 ± 1% | 86 ± 9% | 120 ± 9% | 17 ± 1% | 32 ± 27% | 76 ± 4% | 30 ± 2% | 102 ± 3% | 80 ± 1% | 104 ± 3%
2 | N=C(N)NCCC[C@@H](NC(=O)CCCCCNCc1nc2c(sc3cc(Br)cnc32)c(=O)[nH]1)C(=O)N[C@H](CCCNC(=N)N)C(=O)N[C@H](CCCNC(=N)N)C(=O)N[C@H](CCCNC(=N)N)C(=O)N[C@H](CCCNC(=N)N)C(=O)N[C@H](CCCNC(=N)N)C(=O)N[C@H](CCCCN)C(N)=O [ARC-3126, BPTP-Ahx-(D-Arg)6-D-Lys-NH2] (X3-[dR][dR][dR][dR][dR][dR][dK]-NH2) | 95 ± 15% | 98 ± 8% | 110 ± 5% | 86 ± 15% | 100 ± 6% | 94% | 8 ± 3% | 99 ± 14% | 104 ± 2% | 94 ± 10%
3 | N=C(N)NCCC[C@@H](NC(=O)CNC(=O)[C@@H](CCCNC(=N)N)NC(=O)[C@@H](CCCNC(=N)N)NC(=O)CCCCCCCNCc1nc2c(sc3cc(Br)cnc32)c(=O)[nH]1)C(=O)N[C@H](CCCCN)C(N)=O [Compound 1, BPTP-Aoc-(D-Arg)2-Gly-D-Arg-D-Lys-NH2] | 111 ± 9% | 99 ± 11% | 111 ± 13% | 109 ± 11% | 93 ± 4% | 110 ± 15% | 77 ± 9% | 111 ± 11% | 97% | 107 ± 26%
4 | N=C(N)NCCC[C@@H](NC(=O)CNC(=O)[C@@H](CCCNC(=N)N)NC(=O)[C@@H](CCCNC(=N)N)NC(=O)CCCCCCCNCc1nc2c(sc3ccc(Br)cc32)c(=O)[nH]1)C(=O)N[C@H](CCCCN)C(N)=O [Compound 2, BBTP-Aoc-(D-Arg)2-Gly-D-Arg-D-Lys-NH2] | 60 ± 12% | 97 ± 3% | 114 ± 15% | 92 ± 10% | 94 ± 1% | 113 ± 1% | 63 ± 12% | 106 ± 13% | 100 ± 11% | 106 ± 2%
5 | N=C(N)NCCC[C@@H](NC(=O)CNC(=O)[C@@H](CCCNC(=N)N)NC(=O)[C@@H](CCCNC(=N)N)NC(=O)Cn1cc(CNCc2nc3c(sc4ccc(Br)cc43)c(=O)[nH]2)nn1)C(=O)N[C@H](CCCCN)C(N)=O [Compound 3, BBTP-Amt-(D-Arg)2-Gly-D-Arg-D-Lys-NH2] | 60 ± 3% | 105 ± 9% | 105 ± 8% | 106 ± 11% | 92 ± 6% | 106 ± 2% | 57 ± 7% | 105 ± 1% | 90 ± 6% | 79 ± 3%

Source: article PMC8307404, “Crystal Structure-Guided Design of Bisubstrate Inhibitors and Photoluminescent Probes for Protein Kinases of the PIM Family” (Molecules, 2021)
